The values that follow come from publication PMC2585067.

In this test the target is EYFP, free protein expressed in HeLa cells (Aequoria victoria). The test can be described thus: FRET or BRET. In general terms: BRET reads energy transfer from a luciferase to a nearby fluorophore.

“ECFP, free protein expressed in HeLa cells” had a cross-bleed corrected FRET normalized to fluorescence of donor of 6.2%.
